Sequences and labels used below:
B2: VCAM-1/IgG1 fusion protein (seven extracellular immunoglobulin-like domains) (Fc fusion, UniProt P19320 25-698, looked up)
chain: FKIETTPESRYLAQIGDSVSLTCSTTGCESPFFSWRTQIDSPLNGKVTNEGTTSTLTMNPVSFGNEHSYLCTATCESRKLEKGIQVEIYSFPKDPEIHLSGPLEAGKPITVKCSVADVYPFDRLEIDLLKGDHLMKSQEFLEDADRKSLETKSLEVTFTPVIEDIGKVLVCRAKLHIDEMDSVPTVRQAVKELQVYISPKNTVISVNPSTKLQEGGSVTMTCSSEGLPAPEIFWSKKLDNGNLQHLSGNATLTLIAMRMEDSGIYVCEGVNLIGKNRKEVELIVQEKPFTVEISPGPRIAAQIGDSVMLTCSVMGCESPSFSWRTQIDSPLSGKVRSEGTNSTLTLSPVSFENEHSYLCTVTCGHKKLEKGIQVELYSFPRDPEIEMSGGLVNGSSVTVSCKVPSVYPLDRLEIELLKGETILENIEFLEDTDMKSLENKSLEMTFIPTIEDTGKALVCQAKLHIDDMEFEPKQRQSTQTLYVNVAPRDTTVLVSPSSILEEGSSVNMTCLSQGFPAPKILWSRQLPNGELQPLSENATLTLISTKMEDSGVYLCEGINQAGRSRKEVELIIQVTPKDIKLTAFPSESVKEGDTVIISCTCGNVPETWIILKKKAETGDTVLKSIDGAYTIRKAQLKDAGVYECESKNKVGSQLRSLTLDVQGRENNKDYFSPE
notes: domain: seven extracellular immunoglobulin-like domains; also called VCAM-I/Ig; VCAM-I/IgG; not shown: IgG1 portion
B4: soluble ICAM-1/IgG1 fusion protein (Fc fusion, UniProt P05362 28-480, looked up)
chain: QTSVSPSKVILPRGGSVLVTCSTSCDQPKLLGIETPLPKKELLLPGNNRKVYELSNVQEDSQPMCYSNCPDGQSTAKTFLTVYWTPERVELAPLPSWQPVGKNLTLRCQVEGGAPRANLTVVLLRGEKELKREPAVGEPAEVTTTVLVRRDHHGANFSCRTELDLRPQGLELFENTSAPYQLQTFVLPATPPQLVSPRVLEVDTQGTVVCSLDGLFPVSEAQVHLALGDQRLNPTVTYGNDSFSAKASVSVTAEDEGTQRLTCAVILGNQSQETLQTVTIYSFPAPNVILTKPEVSEGTEVTVKCEAHPRAKVTLNGVPAQPLGPRAQLLLKATPEDNGRSFSCSATLEVAGQLIHKNQTRELRVLYGPRLDERDCPGNWTWPENSQQTPMCQAWGNPLPELKCLKDGTFPLPIGESVTVTRDLEGTYLCRARSTQGEVTRKVTVNVLSPRYE
notes: also called ICAM-I/IgG; not shown: IgG1 portion
B5: soluble ICAM-R/IgG1 fusion protein (Fc fusion, UniProt P32942 30-485, looked up)
chain: QEFLLRVEPQNPVLSAGGSLFVNCSTDCPSSEKIALETSLSKELVASGMGWAAFNLSNVTGNSRILCSVYCNGSQITGSSNITVYRLPERVELAPLPPWQPVGQNFTLRCQVEDGSPRTSLTVVLLRWEEELSRQPAVEEPAEVTATVLASRDDHGAPFSCRTELDMQPQGLGLFVNTSAPRQLRTFVLPVTPPRLVAPRFLEVETSWPVDCTLDGLFPASEAQVYLALGDQMLNATVMNHGDTLTATATATARADQEGAREIVCNVTLGGERREARENLTVFSFLGPIVNLSEPTAHEGSTVTVSCMAGARVQVTLDGVPAAAPGQPAQLQLNATESDDGRSFFCSATLEVDGEFLHRNSSVQLRVLYGPKIDRATCPQHLKWKDKTRHVLQCQARGNPYPELRCLKEGSSREVPVGIPFFVNVTHNGTYQCQASSSRGKYTLVVVMDIEAGSSH
notes: not shown: IgG1 portion

Experiment [1] concerns the target B4. Briefly: ELISA, detection with anti-IgG4 HP6023.
The target of experiment [2] is B5. In words: ELISA, detection with anti-IgG4 HP6023. For orientation: ELISA stands for enzyme-linked immunosorbent assay.
Experiment [3] addresses B2. In words: ELISA, detection with anti-IgG4 HP6023.
In experiment [4] the target is T1, LFA-1 leucine zipper fusion protein (UniProt P20701 26-1090; P05107 23-700).
T1 construct: also called LFA-1LZ; captured CD11a/CD18; not shown: leucine zipper strand
In words: ELISA, CAM/Ig on LFA-1LZ captured with TS2/4.1.

The target in experiment [5] is T2, human αd/CD18 expressed on transfected cells (human, UniProt P05107 23-769).
T2 construct: whole, on cells; Heterodimer on COS, CHO or JY transfectants; also called αd/CD18 transfectants; αd/CD18 CHO transfected cells
Briefly: adhesion of αdβ2-transfected CHO cells to coated wells.

Experiment [6] addresses T1, LFA-1 leucine zipper fusion protein. Briefly: ELISA, CAM/Ig on captured integrin.
Experiment [7] addresses T2, human αd/CD18 expressed on transfected …. In words: adhesion of transfected CHO cells to immobilized CAM, crystal violet.
In experiment [8] the target is T3, α4β1 expressed on CHO cells (UniProt P13612 34-1032; P05556 21-798, limits assumed).
T3 construct: whole, on cells; also called VLA-4; α4 transformed CHO cells
T3 sequence (P13612 34-1032 limits assumed, chain 1 of 2): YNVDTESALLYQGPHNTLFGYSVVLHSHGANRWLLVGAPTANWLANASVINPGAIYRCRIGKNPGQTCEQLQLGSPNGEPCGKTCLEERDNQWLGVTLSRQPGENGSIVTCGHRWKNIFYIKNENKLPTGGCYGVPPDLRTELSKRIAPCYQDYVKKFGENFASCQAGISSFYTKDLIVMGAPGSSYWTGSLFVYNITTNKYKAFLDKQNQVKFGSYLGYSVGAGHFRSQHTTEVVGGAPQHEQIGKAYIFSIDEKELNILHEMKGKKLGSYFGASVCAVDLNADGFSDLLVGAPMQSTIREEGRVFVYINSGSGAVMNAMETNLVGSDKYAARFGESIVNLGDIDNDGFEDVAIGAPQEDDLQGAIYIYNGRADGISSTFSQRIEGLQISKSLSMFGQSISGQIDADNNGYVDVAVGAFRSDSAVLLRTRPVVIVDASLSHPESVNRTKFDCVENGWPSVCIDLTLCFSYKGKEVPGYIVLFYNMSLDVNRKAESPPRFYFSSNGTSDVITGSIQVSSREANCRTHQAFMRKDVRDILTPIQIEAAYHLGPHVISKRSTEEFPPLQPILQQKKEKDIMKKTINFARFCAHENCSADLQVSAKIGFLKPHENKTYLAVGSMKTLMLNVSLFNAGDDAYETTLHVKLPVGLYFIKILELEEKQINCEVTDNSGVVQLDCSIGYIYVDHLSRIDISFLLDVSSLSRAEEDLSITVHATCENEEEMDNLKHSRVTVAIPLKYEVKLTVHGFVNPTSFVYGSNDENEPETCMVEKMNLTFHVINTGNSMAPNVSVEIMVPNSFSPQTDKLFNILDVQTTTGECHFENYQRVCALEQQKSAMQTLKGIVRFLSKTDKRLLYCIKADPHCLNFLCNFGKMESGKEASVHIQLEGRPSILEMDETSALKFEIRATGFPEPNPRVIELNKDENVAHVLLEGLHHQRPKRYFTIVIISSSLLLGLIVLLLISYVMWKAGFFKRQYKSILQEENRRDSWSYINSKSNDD
T3 sequence (P05556 21-798 limits assumed, chain 2 of 2): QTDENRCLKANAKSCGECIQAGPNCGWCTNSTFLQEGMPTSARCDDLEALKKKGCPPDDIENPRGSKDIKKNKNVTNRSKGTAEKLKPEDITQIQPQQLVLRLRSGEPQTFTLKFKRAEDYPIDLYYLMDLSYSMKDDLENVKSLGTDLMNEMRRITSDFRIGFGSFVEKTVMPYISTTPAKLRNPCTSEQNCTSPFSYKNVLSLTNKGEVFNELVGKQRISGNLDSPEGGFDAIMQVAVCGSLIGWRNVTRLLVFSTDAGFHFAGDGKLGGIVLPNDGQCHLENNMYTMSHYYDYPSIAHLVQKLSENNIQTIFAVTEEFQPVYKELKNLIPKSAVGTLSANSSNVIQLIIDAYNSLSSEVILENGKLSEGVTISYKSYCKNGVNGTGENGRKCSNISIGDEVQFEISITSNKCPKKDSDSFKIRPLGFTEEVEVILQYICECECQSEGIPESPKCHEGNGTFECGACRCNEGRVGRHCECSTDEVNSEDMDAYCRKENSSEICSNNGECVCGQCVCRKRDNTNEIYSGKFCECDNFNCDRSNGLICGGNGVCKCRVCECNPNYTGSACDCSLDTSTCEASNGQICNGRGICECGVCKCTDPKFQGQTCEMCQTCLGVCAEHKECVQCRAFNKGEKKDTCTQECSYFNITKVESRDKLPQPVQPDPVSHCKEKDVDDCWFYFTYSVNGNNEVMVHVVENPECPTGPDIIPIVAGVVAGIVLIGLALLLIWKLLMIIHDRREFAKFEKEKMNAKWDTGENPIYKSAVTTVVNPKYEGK
The experiment is described as above.

The target of experiment [9] is T2, human αd/CD18 expressed on transfected …. Briefly: summary of the adhesion and flow cytometry assays.
For experiment [10] the target is unchanged. Briefly: adhesion of transfected CHO cells to immobilized CAM, crystal violet, A570.

Drawing on patent EP2182008A2 (ICOS Corporation, dated 2010), this text covers binding result and fold above background for 6 molecules.

B1: CD11a I domain/IgG chimeric protein (Fc fusion, UniProt P20701 153-335, looked up)
chain: GNVDLVFLFDGSMSLQPDEFQKILDFMKDVMKKLSNTSYQFAAVQFSTSYKTEFDFSDYVKRKDPDALLKHVKHMLLLTNTFGAINYVATEVFREELGARPDATKVLIIITDGEATDSGNIDAAKDIIRYIIGIGKHFQTKESQETLHKFASKPASEFVKILDTFEKLKDLFTELQKKIYVIE
notes: domain: I domain; Negative control in the I domain ELISA; also called CD11a/IgG4 protein; not shown: IgG4 portion
As for B1, the binding result in experiment [1], in [2] and in experiment [3] was “no binding” in each case.
With B2, in experiment [4], the binding result was “no binding”.

B3: E-selectin (immobilized) (ligand, UniProt P16581 22-556, looked up)
chain: WSYNTSTEAMTYDEASAYCQQRYTHLVAIQNKEEIEYLNSILSYSPSYYWIGIRKVNNVWVWVGTQKPLTEEAKNWAPGEPNNRQKDEDCVEIYIKREKDVGMWNDERCSKKKLALCYTAACTNTSCSGHGECVETINNYTCKCDPGFSGLKCEQIVNCTALESPEHGSLVCSHPLGNFSYNSSCSISCDRGYLPSSMETMQCMSSGEWSAPIPACNVVECDAVTNPANGFVECFQNPGSFPWNTTCTFDCEEGFELMGAQSLQCTSSGNWDNEKPTCKAVTCRAVRQPQNGSVRCSHSPAGEFTFKSSCNFTCEEGFMLQGPAQVECTTQGQWTQQIPVCEAFQCTALSNPERGYMNCLPSASGSFRYGSSCEFSCEQGFVLKGSKRLQCGPTGEWDNEKPTCEAVRCDAVHQPPKGLVRCAHSPIGEFTYKSSCAFSCEEGFELHGSTQLECTSQGQWTEEVPSCQVVKCSSLAVPGKINMSCSGEPVFGTVCKFACPEGWTLNGSAARTCGATGHWSGLLPTCEAPTESNIP
notes: Control adhesion molecule; also called E-selection
In the case of B3, in experiment [5], the binding result was “no binding (tested: 100 ng/ml coat)”.
Molecule B4 showed a fold above background in experiment [6] of roughly 15 fold. Besides, the binding result in experiment [7] and in experiment [8] was “no binding (tested: 0.5 µg/well)” throughout.
B5: in experiment [9], the binding result is “binds”.

B6: VCAM-1 domains 1 and 2 fused to human immunoglobulin Fc (Fc fusion, UniProt P19320 25-220, looked up)
chain: FKIETTPESRYLAQIGDSVSLTCSTTGCESPFFSWRTQIDSPLNGKVTNEGTTSTLTMNPVSFGNEHSYLCTATCESRKLEKGIQVEIYSFPKDPEIHLSGPLEAGKPITVKCSVADVYPFDRLEIDLLKGDHLMKSQEFLEDADRKSLETKSLEVTFTPVIEDIGKVLVCRAKLHIDEMDSVPTVRQAVKELQVY
notes: domain: domains 1 and 2; also called two domain form of VCAM-1; two domain VCAM-1 expression construct; not shown: human immunoglobulin Fc
Regarding B6, in experiment [10], the binding result is listed as “binds”.
